# Source: patent US20210071139A1
# Assays:
# [1] = molecular target: Afg3l1 (UniProt Q920A7); assay: anti-TOX IP from EL4 nuclear extract, LC-MS/MS, MiST
# [2] = molecular target: Ash2l (UniProt Q91X20); assay: as above
# [3] = molecular target: Ogdh (UniProt Q60597); assay: as above
# [4] = molecular target: Pml (UniProt Q60953); assay: as above
# [5] = molecular target: Rif1 (UniProt Q6PR54); assay: as above
# [6] = molecular target: Tagln2 (UniProt Q9WVA4); assay: as above
# [7] = molecular target: Tpm4 (UniProt Q6IRU2); assay: as above
# [8] = molecular target: Utp18 (UniProt Q5SSI6); assay: as above
# [9] = molecular target: Acad9 (UniProt Q8JZN5); assay: TOX IP-MS, EL4 nuclear extract, MiST
# [10] = molecular target: C1qc (UniProt Q02105); assay: TOX IP-MS, EL4 nuclear extract, MiST
# [11] = molecular target: Ccar1 (UniProt Q8CH18); assay: TOX IP-MS, EL4 nuclear extract, MiST
# [12] = molecular target: Dlst (UniProt Q9D2G2); assay: TOX IP-MS, EL4 nuclear extract, MiST
# [13] = molecular target: Dnajc9 (UniProt Q91WN1); assay: TOX IP-MS, EL4 nuclear extract, MiST
# [14] = molecular target: Fxr1 (UniProt Q61584); assay: TOX IP-MS, EL4 nuclear extract, MiST
# [15] = molecular target: Kntc1 (UniProt Q8C3Y4); assay: TOX IP-MS, EL4 nuclear extract, MiST
# [16] = molecular target: Meaf6 (UniProt Q2VPQ9); assay: TOX IP-MS, EL4 nuclear extract, MiST
# [17] = molecular target: Ppie (UniProt Q9QZH3); assay: TOX IP-MS, EL4 nuclear extract, MiST
# [18] = molecular target: Rbm34 (UniProt Q8C5L7); assay: TOX IP-MS, EL4 nuclear extract, MiST
# [19] = molecular target: Rcn2 (UniProt Q8BP92); assay: TOX IP-MS, EL4 nuclear extract, MiST
# [20] = molecular target: Rrp8 (UniProt Q9DB85); assay: TOX IP-MS, EL4 nuclear extract, MiST
# [21] = molecular target: Sap130 (UniProt Q8BIH0); assay: TOX IP-MS, EL4 nuclear extract, MiST
# [22] = molecular target: Sdcbp (UniProt O08992); assay: TOX IP-MS, EL4 nuclear extract, MiST
# [23] = molecular target: Srrt (UniProt Q99MR6); assay: TOX IP-MS, EL4 nuclear extract, MiST
# [24] = molecular target: Thoc5 (UniProt Q8BKT7); assay: TOX IP-MS, EL4 nuclear extract, MiST
# [25] = molecular target: Tox4; Tox3; assay: TOX IP-MS, EL4 nuclear extract, MiST
# [26] = molecular target: Zfp219 (UniProt Q6IQX8); assay: TOX IP-MS, EL4 nuclear extract, MiST
# [27] = molecular target: Zwilch (UniProt Q8R060); assay: TOX IP-MS, EL4 nuclear extract, MiST
# Sequence of Thoc5 (Q8BKT7 2-683 limits assumed): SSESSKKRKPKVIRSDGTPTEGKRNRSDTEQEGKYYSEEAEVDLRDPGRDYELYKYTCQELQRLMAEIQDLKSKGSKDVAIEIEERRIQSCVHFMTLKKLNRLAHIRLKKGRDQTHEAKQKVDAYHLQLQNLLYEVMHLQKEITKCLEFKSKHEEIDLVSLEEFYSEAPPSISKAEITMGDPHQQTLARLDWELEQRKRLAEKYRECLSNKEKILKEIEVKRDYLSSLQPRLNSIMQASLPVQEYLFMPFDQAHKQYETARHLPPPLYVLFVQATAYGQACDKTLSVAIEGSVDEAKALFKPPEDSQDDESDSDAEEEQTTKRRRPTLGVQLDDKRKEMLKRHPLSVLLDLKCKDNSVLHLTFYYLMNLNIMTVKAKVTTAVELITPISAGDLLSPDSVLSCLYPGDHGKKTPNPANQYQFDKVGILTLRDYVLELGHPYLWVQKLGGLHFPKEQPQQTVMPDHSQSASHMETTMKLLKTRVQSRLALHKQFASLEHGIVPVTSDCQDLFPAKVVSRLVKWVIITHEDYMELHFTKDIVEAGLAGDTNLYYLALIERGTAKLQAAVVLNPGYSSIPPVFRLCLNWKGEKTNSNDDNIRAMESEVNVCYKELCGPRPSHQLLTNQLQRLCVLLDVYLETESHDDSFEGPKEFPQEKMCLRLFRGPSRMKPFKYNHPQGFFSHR
# Sequence of Kntc1 (Q8C3Y4 whole entry): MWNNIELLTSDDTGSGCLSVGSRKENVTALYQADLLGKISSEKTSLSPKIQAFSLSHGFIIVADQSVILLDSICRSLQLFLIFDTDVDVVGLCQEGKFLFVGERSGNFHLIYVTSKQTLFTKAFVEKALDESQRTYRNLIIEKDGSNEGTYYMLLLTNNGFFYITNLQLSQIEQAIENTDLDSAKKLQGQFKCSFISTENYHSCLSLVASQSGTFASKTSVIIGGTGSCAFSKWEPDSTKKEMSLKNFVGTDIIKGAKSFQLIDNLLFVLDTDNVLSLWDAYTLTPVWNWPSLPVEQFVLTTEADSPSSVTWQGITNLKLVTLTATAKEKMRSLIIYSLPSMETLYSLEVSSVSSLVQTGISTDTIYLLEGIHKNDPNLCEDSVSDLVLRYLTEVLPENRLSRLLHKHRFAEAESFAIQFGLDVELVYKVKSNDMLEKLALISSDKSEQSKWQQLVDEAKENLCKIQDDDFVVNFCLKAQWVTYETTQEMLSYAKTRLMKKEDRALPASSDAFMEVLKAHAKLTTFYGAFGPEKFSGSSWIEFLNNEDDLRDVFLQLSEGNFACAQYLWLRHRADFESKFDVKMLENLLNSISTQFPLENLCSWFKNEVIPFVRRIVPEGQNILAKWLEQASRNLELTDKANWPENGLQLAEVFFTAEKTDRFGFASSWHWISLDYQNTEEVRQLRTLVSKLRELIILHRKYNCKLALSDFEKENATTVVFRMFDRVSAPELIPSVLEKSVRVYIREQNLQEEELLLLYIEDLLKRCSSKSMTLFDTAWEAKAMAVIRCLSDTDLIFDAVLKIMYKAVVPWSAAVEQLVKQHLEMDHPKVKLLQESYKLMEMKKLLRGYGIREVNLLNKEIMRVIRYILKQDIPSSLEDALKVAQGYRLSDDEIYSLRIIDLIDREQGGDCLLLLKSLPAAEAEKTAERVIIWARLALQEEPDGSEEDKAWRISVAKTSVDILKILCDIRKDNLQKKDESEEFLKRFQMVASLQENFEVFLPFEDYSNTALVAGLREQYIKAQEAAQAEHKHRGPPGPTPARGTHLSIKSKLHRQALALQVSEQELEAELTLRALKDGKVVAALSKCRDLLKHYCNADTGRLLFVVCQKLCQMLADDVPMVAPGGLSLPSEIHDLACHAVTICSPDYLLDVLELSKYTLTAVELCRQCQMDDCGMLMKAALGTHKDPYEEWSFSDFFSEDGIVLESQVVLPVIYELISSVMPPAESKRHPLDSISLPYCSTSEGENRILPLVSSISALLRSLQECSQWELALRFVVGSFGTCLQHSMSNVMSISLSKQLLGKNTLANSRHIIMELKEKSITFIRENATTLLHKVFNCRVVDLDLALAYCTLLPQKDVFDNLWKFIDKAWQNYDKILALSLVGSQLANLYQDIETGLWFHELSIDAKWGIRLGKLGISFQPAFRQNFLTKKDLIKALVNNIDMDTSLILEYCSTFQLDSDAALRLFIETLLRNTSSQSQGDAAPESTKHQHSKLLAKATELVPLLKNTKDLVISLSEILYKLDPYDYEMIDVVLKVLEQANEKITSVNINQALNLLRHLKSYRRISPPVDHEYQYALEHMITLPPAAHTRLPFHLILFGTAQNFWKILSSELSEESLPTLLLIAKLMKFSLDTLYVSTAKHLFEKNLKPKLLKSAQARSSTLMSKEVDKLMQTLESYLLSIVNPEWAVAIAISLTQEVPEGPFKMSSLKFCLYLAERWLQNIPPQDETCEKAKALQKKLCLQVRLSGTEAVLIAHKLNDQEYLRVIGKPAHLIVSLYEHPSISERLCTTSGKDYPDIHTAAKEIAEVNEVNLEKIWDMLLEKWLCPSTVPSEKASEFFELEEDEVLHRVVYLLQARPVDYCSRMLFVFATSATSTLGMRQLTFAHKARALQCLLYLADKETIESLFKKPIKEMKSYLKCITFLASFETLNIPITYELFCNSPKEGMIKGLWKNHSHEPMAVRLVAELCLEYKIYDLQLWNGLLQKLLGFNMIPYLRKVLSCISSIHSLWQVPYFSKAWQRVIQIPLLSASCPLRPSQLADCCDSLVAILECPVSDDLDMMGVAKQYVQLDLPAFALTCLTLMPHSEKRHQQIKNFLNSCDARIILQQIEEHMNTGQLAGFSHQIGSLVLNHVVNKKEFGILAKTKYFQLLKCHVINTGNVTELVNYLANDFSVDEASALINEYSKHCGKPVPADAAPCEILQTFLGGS
# Sequence of Acad9 (Q8JZN5 42-625 limits assumed): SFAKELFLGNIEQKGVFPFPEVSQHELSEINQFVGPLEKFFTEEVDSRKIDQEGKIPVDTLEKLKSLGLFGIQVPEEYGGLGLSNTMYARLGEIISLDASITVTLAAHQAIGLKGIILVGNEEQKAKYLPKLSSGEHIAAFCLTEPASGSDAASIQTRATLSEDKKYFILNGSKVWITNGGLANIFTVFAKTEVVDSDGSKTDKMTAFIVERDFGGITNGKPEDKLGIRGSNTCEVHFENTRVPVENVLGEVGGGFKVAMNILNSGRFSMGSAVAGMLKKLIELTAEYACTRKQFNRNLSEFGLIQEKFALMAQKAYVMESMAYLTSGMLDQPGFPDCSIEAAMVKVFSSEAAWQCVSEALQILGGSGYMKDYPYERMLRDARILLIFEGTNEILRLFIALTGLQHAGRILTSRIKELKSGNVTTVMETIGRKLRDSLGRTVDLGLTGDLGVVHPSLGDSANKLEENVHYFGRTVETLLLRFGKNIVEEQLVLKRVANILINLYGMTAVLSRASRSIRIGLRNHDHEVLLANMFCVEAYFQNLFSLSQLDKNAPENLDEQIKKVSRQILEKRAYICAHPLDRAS
# Sequence of C1qc (Q02105 30-246 limits assumed): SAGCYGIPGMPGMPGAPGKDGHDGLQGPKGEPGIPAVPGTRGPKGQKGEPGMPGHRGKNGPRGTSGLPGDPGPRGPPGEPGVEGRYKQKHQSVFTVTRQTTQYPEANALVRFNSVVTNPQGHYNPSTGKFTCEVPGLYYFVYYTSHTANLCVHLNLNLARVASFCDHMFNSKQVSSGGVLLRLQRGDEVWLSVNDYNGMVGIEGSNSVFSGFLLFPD
# Sequence of Ccar1 (Q8CH18 whole entry): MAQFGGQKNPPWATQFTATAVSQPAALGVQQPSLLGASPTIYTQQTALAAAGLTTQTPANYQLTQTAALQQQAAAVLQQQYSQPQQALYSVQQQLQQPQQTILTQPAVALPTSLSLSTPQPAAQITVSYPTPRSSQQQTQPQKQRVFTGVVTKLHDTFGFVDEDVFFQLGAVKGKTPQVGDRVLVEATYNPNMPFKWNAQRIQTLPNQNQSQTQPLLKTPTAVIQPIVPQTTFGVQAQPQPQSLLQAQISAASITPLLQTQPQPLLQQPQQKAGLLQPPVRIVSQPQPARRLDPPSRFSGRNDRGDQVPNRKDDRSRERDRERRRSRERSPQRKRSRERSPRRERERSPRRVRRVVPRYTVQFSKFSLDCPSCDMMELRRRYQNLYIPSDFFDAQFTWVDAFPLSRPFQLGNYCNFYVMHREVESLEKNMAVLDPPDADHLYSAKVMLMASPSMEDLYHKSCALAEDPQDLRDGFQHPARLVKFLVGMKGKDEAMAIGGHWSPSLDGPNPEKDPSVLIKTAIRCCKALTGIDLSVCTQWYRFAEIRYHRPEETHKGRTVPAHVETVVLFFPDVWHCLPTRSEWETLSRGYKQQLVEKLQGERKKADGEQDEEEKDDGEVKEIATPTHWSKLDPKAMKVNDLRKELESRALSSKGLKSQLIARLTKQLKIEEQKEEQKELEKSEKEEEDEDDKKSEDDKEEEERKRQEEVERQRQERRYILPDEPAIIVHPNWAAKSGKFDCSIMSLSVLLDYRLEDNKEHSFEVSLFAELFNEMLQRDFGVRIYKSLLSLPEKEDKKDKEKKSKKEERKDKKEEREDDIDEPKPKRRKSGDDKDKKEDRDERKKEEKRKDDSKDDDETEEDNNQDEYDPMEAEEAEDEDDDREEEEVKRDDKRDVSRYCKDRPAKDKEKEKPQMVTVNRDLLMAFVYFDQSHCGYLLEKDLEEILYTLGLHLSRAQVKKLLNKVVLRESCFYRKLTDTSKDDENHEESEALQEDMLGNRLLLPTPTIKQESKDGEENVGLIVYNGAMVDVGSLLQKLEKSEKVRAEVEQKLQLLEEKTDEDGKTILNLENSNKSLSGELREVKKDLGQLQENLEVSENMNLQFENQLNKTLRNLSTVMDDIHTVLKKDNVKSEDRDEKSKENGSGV
# Sequence of Tagln2 (Q9WVA4 2-199 limits assumed): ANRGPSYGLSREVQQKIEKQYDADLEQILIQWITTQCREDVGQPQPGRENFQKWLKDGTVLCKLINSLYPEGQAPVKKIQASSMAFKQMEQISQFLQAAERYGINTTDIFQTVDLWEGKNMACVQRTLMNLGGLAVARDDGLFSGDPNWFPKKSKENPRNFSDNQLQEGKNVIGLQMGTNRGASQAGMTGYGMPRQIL
substance,measurement,setting,value
TOX (from UniProt Q66JW3 1-526),Abundance,[1],2.15e-06
same,MiST Score,[1],0.874
same,Reproducibility,[1],0.61
same,Specificity,[1],1
same,Abundance,[2],4.44e-06
same,MiST Score,[2],0.879
same,Reproducibility,[2],0.629
same,Specificity,[2],1
same,Abundance,[3],1.34e-05
same,MiST Score,[3],0.88
same,Reproducibility,[3],0.851
same,Specificity,[3],0.902
same,Abundance,[4],8.97e-06
same,MiST Score,[4],0.858
same,Reproducibility,[4],0.557
same,Specificity,[4],1
same,Abundance,[5],1.07e-07
same,MiST Score,[5],0.874
same,Reproducibility,[5],0.611
same,Specificity,[5],1
same,Abundance,[6],1.75e-05
same,MiST Score,[6],0.875
same,Reproducibility,[6],0.616
same,Specificity,[6],1
same,Abundance,[7],0.000138
same,MiST Score,[7],0.859
same,Reproducibility,[7],0.979
same,Specificity,[7],0.812
same,Abundance,[8],1.83e-05
same,MiST Score,[8],0.865
same,Reproducibility,[8],0.582
same,Specificity,[8],1
Tox (from UniProt Q66JW3 1-526),Abundance,[9],7.35e-06
same,MiST Score,[9],0.919
same,Reproducibility,[9],0.846
same,Specificity,[9],0.959
same,Abundance,[10],0.000821
same,MiST Score,[10],0.976
same,Reproducibility,[10],0.943
same,Specificity,[10],1
same,Abundance,[11],1.49e-06
same,MiST Score,[11],0.962
same,Reproducibility,[11],0.897
same,Specificity,[11],1
same,Abundance,[12],0.000104
same,MiST Score,[12],0.934
same,Reproducibility,[12],0.941
same,Specificity,[12],0.938
same,Abundance,[13],5.16e-05
same,MiST Score,[13],0.961
same,Reproducibility,[13],0.892
same,Specificity,[13],1
same,Abundance,[14],1.59e-05
same,MiST Score,[14],0.915
same,Reproducibility,[14],0.924
same,Specificity,[14],0.919
same,Abundance,[15],2.82e-06
same,MiST Score,[15],0.897
same,Reproducibility,[15],0.686
same,Specificity,[15],1
same,Abundance,[16],5.46e-05
same,MiST Score,[16],0.968
same,Reproducibility,[16],0.916
same,Specificity,[16],1
same,Abundance,[17],1.28e-05
same,MiST Score,[17],0.979
same,Reproducibility,[17],0.953
same,Specificity,[17],1
same,Abundance,[18],4.09e-05
same,MiST Score,[18],0.962
same,Reproducibility,[18],0.895
same,Specificity,[18],1
same,Abundance,[19],1.4e-05
same,MiST Score,[19],0.992
same,Reproducibility,[19],0.993
same,Specificity,[19],1
same,Abundance,[20],4.13e-06
same,MiST Score,[20],0.969
same,Reproducibility,[20],0.919
same,Specificity,[20],1
same,Abundance,[21],5.37e-06
same,MiST Score,[21],0.971
same,Reproducibility,[21],0.926
same,Specificity,[21],1
same,Abundance,[22],5.96e-05
same,MiST Score,[22],0.957
same,Reproducibility,[22],0.88
same,Specificity,[22],1
same,Abundance,[23],2.3e-06
same,MiST Score,[23],0.913
same,Reproducibility,[23],0.953
same,Specificity,[23],0.903
same,Abundance,[24],3.93e-06
same,MiST Score,[24],0.987
same,Reproducibility,[24],0.977
same,Specificity,[24],1
same,Abundance,[25],1.98e-05
same,MiST Score,[25],0.936
same,Reproducibility,[25],0.812
same,Specificity,[25],1
same,Abundance,[26],8.26e-06
same,MiST Score,[26],0.902
same,Reproducibility,[26],0.836
same,Specificity,[26],0.94
same,Abundance,[27],6.62e-05
same,MiST Score,[27],0.895
same,Reproducibility,[27],0.729
same,Specificity,[27],0.978
